In the nanobody polyreactivity screen of Harvey et al. (2022):

Assay: yeast display, Sf9 membrane polyspecificity reagent, FACS + sequencing; frameworks hold sequencing errors
Method in brief: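 Galactose-induced (36–48 hours) yeast carrying a synthetic nanobody display library were exposed to 10% biotinylated, detergent-solubilized Sf9 membrane reagent at 4 °C for 1 hour. FACS followed streptavidin microbead enrichment, using low and high (top ~1%) gates for expression (anti-HA) and reagent binding (streptavidin). Colony PCR, MiSeq 2 × 250 sequencing and CDR-length filtering followed. Labels for polyreactivity reflect the gate of origin.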

Sequence	polyreactivity (PSR sort gate)
QVQLVESGGGLVQAGGSLRLSCAASGSIFGDNAMGWYRQAPGKERELVAAITSSGGSTYYADSVKGRFTISRDNAKNTVYLQMNSLKPEDTAVYYCNADFGYGWYLRYDYWGQGTQVTVSS	high polyreactivity
QVQLVESGGGLVQAGGSLRLSCAASGSIFGDNAMGWYRQAPGKERELVAAITTGASRTYYADSVKGRFTISRDNAKNTVYLQMNSLKPEDTAVYYCNASDPSWREYDYWGQGTQVIVSS	low polyreactivity
QVQLVESGGGLVQAGGSLRLSCAASGSIFGDYAMGWYRQAPGKERELVAAITSSGGITYYADSVKGRFTISLDNAKNTVYLQMKSLNPEDTAVYYCAAYGYGSNYRYTGYYYWGQGTQVTVSS	low polyreactivity
QVQLVESGGGLVQAGGSLRLSCAASGSIFGDYVMGWYRQAPGKERELVAAITFGGGRTYYADSVKGRFTISRDNAKNTVYLQMNSLKPEDTAVYYCAVSRKGLGSVEYWGQGTQVTVSS	low polyreactivity
QVQLVESGGGLVQAGGSLRLSCAASGSIFGENARGWYRQAPGKERELVAAITSGGSTYYADSVKGRFTISRDNAKNTVYLQMNSLKPVDTAVYYCAASGRVGPGYWYDSWGQGTQVTVSS	low polyreactivity
QVQLVESGGGLVQAGGSLRLSCAASGSIFGEYAMGWYRQAPGKERELVADITTGGNTNYADSVKGRFTISRDYAKNTVYLQMNSLKPEDTAVYYCADEANYYVIFHGSWYTDDYWGQGTQVTVSS	low polyreactivity
QVQLVESGGGLVQAGGSLRLSCAASGSIFGFNAMGWYRQAPGKERELVAAINNGGSTNYADSVKGRFTISRDNAKNTVYLQMNSLKPEDTAVYYCAAVGGWRWSNQDYRYPYYYWGQGTQVTVSS	high polyreactivity
QVQLVESGGGLVQAGGSLRLSCAASGSIFGFNTMGWYRQAPGKERELVATINWSGGSTYYADSVKGRFTISRDNAKNTVYLQMNSLKPEDTAVYYCNAGPFSGRLFTTYASRGRYDYWGQGTQVTVSS	low polyreactivity
QVQLVESGGGLVQAGGSLRLSCAASGSIFGFYAMGWYRQAPGKERELVAAISSDGGSTYYADSVKGRFTISRDNAKNTVYLQMNSLKPEDTAVYYCAAAHGSIYDSTYYEYYYWGQGTQVTVSS	low polyreactivity
QVQLVESGGGLVQAGGSLRLSCAASGSIFGFYAMGWYRQAPGKERELVASITISGGSTYYADSVKGRFTISRDNAKNTVYLQMNSLKPEDTAVYYCAARRYWDYNYWGQGTQVTVSS	low polyreactivity
QVQLVESGGGLVQAGGSLRLSCAASGSIFGGNAMGCYRQAPGKERELVAAITDGGNTNYADSVKGRFTISRDNAKNTVYLQMNSLKPEDTAVYYCAARMPGTYGGRYGYDYWGQGTQVTVSS	low polyreactivity
QVQLVESGGGLVQAGGSLRLSCAASGSIFGGNAMGWYRQAPGKERELVAAISGSGGSTYYADSVKGRFTISRDNAKNTVYLQMNSLKPEDTAVYYCAAGIYRGRNYYYWGQGTQVTVSS	high polyreactivity
QVQLVESGGGLVQAGGSLRLSCAASGSIFGGNAMGWYRQAPGKERELVATITDRGSSTYYADSVKGRFTISRDNAKNTVYLQMNSLKPEDTAVYYCATAFPDVPEPDYWGQGAQVTVSS	low polyreactivity
QVQLVESGGGLVQAGGSLRLSCAASGSIFGGYAMGWYRQAPGKERELVAAIDESGGSTYYADSVKGRFTISRDNAKNTVYLQMNSLKPDDTAVDYCLVFRDDSGPGDYYYWGQGTQVTVSS	low polyreactivity
QVQLVESGGGLVQAGGSLRLSCAASGSIFGGYAMGWYRQAPGKERELVATITRGGSTYYADSVKGRFTISRDNAKNTVYFQMNSLKPEDTAVYYCAARLRSKTYYTLEFDYWGQGTQVTVSS	high polyreactivity
QVQLVESGGGLVQAGGSLRLSCAASGSIFGGYAMGWYRQAPGKERELVATSYADSVKGRFTISRDIAKNTVYLQMNSLKPEDTAVYYCAADPPLEGVHGYNYWGQGTQVTVSS	low polyreactivity

Sequence	polyreactivity (PSR sort gate)
QVQLVESGGGLVQAGGSLRLSCAASGSIFGGYAMGWYRQPPGKERELVAAITWGGGSTYYADSVKGRFTISRDNAKNTVYLQMNSLKPEDTAVYYCAADRSWYDWEDDYWGQGTQVTVSS	low polyreactivity
QVQLVESGGGLVQAGGSLRLSCAASGSIFGGYGMGWYRQAPGKERELVAAINSGSSTYYADSVKGRFTISRDNAKNTVYLQMNSLKPEDTAVYYCAARPYPHSAYEGDYWGRGTQVTVSS	low polyreactivity
QVQLVESGGGLVQAGGSLRLSCAASGSIFGGYTMGWYRQAPGKERELVAAISRRGGNTYYADSVKGRFTISRDYAKNTVYLHMKSMKPEDTAVYYCAVRWPSARIPVKLDYWGQGTQVTVSS	high polyreactivity
QVQLVESGGGLVQAGGSLRLSCAASGSIFGHYAMGWYRQAPGKERELVAAISYSGGSTYYADSVKGRFTISRDNAKNTVYLQMNILKPEDTAVYYCNADLYDAGSEMDYWGQGTQVTVSS	high polyreactivity
QVQLVESGGGLVQAGGSLRLSCAASGSIFGINAMGWYRQAPGKERELVAAISYSGGSTYYADTVKGRFTISRDNAKNTVYLQMNSLKPEDTAVYYCARRGKHVAGRYYYWGQVTQVTVSS	high polyreactivity
QVQLVESGGGLVQAGGSLRLSCAASGSIFGINTMGWYRHAPGKEREFVASIRFNDGDTYYADSVKGRFTISRDTAKNTVYLKMNSLKPEDTAVYYCNVQTYVELRLDYWGQGTQVTVSS	low polyreactivity
QVQLVESGGGLVQAGGSLRLSCAASGSIFGINTMRWYRQAPGKEREFVASIRFNDGDTYYADSVKGRFTISRDNAKNTVYFQMNSLKPEDTAVYYFNVQTYVELRLDYWGQGTHVTVSS	low polyreactivity
QVQLVESGGGLVQAGGSLRLSCAASGSIFGIYAMGWYRQAPGKERELVAAIRRGGSTYYADSVKGRFTISRDNAKNTVYLQMNSLKPEDTAVYYCAGRKYRLWGKGVDYDFCGQGTQVTVSS	high polyreactivity
QVQLVESGGGLVQAGGSLRLSCAASGSIFGIYVMGWYRPAPGKERELVAGISTRGGSTYYADSVKGRFTISRDNAKNTVYLQMNSLKPEDTAVYYCAAVPASYRYPMYYWGQGTQVTVSS	low polyreactivity
QVQLVESGGGLVQAGGSLRLSCAASGSIFGKNAMGWYRQAPGKDRELVAAISWSGGRTYYADSVKGRFTISRDNAKNSVYLQMNSLKPEDTAVYYCAASWWGVARGSSRKKYDYWGQGTQVTVSS	high polyreactivity
QVQLVESGGGLVQAGGSLRLSCAASGSIFGKNAMGWYRQARGKERELVAAITWSGGSTYYADSVKGRFTISRENAKNTVYLQMNSLKPEDTAVYYCNAVRVRVTSHRIRQLDFGYWGQGTQVTVSS	low polyreactivity
QVQLVESGGGLVQAGGSLRLSCAASGSIFGKYTMGWYRQAPGKERELVAAISRSGSSTYYADSVKGRFTISRDNAKNTVYLQMNSLKPEDTAVYYCAAKFYYGVTSKFESWGQGTQVTVSS	high polyreactivity
QVQLVESGGGLVQAGGSLRLSCAASGSIFGKYVMGWYRQAPGKERELVAAITFGGGSTYYADSVKGRFTISRDNAKNTVYFQMNSLKPEDTAVYYCAAKSYDERLYRRPRDYWGQGTQVTVSS	high polyreactivity
QVQLVESGGGLVQAGGSLRLSCAASGSIFGLNAMGWYRQPPGKERELVAAINSDGDTYYADSVKGRFTISRDNAKNTVYLQMNSLKPEDTAVYYCSADYYWDPFDSNFGHVPQEYESWGQGTQVTVSS	low polyreactivity
QVQLVESGGGLVQAGGSLRLSCAASGSIFGLYAMGWYRQAPGKEREFVASITYSGGSTYYADSVKGRFTISRDNAKNTVYLQMNSLKPEDTAVYYCAAESYWGYDYWGQGTQVTVSS	high polyreactivity
